Source: paper PMC9482650, “Quantitative fragmentomics allow affinity mapping of interactomes” (Nature Communications, 2022)

Key:
Assay in all cases: holdup assay
Parameters in all cases: key: below the threshold = too weak to quantify, mostly under pKd 3.1 to 4
IL16_4, Q14005 = target: IL16_4, Q14005
APBA3_1, O96018 = target: T1, APBA3_1, O96018
T1 sequence (O96018 389-490, limits assumed, looked up): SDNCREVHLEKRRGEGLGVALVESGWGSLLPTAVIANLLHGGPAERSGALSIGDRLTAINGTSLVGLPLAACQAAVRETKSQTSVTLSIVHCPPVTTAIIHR

CARD11, Q9BXL7 = target: T2, CARD11, Q9BXL7
T2 sequence (Q9BXL7 662-765, limits assumed, looked up): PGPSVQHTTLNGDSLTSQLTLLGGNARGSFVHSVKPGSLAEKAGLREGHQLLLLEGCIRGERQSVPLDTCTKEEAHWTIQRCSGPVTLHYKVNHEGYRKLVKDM

FRMPD1, Q5SYB0 = target: T3, FRMPD1, Q5SYB0
T3 sequence (Q5SYB0 52-145, limits assumed, looked up): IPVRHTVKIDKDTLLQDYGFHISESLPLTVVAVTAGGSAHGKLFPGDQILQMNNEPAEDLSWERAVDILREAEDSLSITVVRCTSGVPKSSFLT

GRIP1_5, Q9Y3R0 = target: T4, GRIP1_5, Q9Y3R0
T4 sequence (Q9Y3R0 568-668, limits assumed, looked up): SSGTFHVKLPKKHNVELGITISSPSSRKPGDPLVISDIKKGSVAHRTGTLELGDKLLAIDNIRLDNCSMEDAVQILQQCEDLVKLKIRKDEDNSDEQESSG

MPDZ_5, O75970 = target: T5, MPDZ_5, O75970
T5 sequence (O75970 695-796, limits assumed, looked up): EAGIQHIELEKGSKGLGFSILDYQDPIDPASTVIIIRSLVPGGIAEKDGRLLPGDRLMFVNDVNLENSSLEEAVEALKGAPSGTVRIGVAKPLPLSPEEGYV

NOS1, P29475 = target: NOS1, P29475
Chain of NOS1, P29475 (P29475 9-101): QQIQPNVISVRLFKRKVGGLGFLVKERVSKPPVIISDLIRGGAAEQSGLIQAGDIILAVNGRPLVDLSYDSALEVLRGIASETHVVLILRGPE

LDB3, O75112 = target: LDB3, O75112
Chain of LDB3, O75112 (O75112 1-94): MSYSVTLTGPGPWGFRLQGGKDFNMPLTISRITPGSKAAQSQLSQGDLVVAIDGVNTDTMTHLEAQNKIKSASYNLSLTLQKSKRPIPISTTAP

LIN7A, O14910 = target: T6, LIN7A, O14910
T6 sequence (O14910 103-200, limits assumed, looked up): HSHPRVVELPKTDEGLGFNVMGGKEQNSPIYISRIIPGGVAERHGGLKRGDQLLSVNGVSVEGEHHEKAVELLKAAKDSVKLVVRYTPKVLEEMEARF

PDLIM1, O00151 = target: PDLIM1, O00151
Chain of PDLIM1, O00151 (O00151 1-87): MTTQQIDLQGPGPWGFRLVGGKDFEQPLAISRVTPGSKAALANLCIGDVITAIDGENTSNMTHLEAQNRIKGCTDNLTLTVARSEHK

GRID2IP_1, A4D2P6 = target: GRID2IP_1, A4D2P6
Chain of GRID2IP_1, A4D2P6 (A4D2P6 1-87): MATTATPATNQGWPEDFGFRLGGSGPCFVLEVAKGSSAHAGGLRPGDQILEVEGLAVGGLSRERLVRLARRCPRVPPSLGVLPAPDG

PDZRN3_1, Q9UPQ7 = target: T7, PDZRN3_1, Q9UPQ7
T7 sequence (Q9UPQ7 244-349, limits assumed, looked up): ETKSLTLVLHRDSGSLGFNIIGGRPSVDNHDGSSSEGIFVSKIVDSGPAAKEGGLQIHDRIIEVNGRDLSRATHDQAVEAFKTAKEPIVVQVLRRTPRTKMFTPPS

MAGI2_6, Q86UL8 = target: MAGI2_6, Q86UL8
Chain of MAGI2_6, Q86UL8 (Q86UL8 1141-1229): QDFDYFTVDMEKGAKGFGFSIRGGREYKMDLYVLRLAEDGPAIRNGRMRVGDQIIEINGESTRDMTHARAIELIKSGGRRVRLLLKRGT

PARD3B_1, Q8TEW8 = target: T8, PARD3B_1, Q8TEW8
T8 sequence (Q8TEW8 196-299, limits assumed, looked up): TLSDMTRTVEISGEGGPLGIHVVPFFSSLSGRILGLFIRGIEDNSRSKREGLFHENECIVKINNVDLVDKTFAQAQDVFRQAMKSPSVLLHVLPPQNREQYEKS

GRIP1_7, Q9Y3R0 = target: T9, GRIP1_7, Q9Y3R0
T9 sequence (Q9Y3R0 999-1096, limits assumed, looked up): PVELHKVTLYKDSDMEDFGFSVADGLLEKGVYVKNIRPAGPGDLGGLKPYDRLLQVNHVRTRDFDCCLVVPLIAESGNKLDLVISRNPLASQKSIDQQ

FRMPD4, Q14CM0 = target: FRMPD4, Q14CM0
Chain of FRMPD4, Q14CM0 (Q14CM0 67-160): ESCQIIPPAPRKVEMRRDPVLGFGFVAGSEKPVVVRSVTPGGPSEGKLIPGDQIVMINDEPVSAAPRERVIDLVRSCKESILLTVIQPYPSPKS

MAGI2_3, Q86UL8 = target: MAGI2_3, Q86UL8
Chain of MAGI2_3, Q86UL8 (Q86UL8 600-682): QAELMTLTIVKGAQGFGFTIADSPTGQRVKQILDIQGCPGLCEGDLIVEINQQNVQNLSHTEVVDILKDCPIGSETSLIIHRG

PARD3_3, Q8TEW0 = target: PARD3_3, Q8TEW0
Chain of PARD3_3, Q8TEW0 (Q8TEW0 582-685): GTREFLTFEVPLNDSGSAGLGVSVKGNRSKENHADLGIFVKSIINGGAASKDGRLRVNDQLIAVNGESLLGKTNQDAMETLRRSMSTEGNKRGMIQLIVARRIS

APBA2_1, Q99767 = target: T10, APBA2_1, Q99767
T10 sequence (Q99767 563-664, limits assumed, looked up): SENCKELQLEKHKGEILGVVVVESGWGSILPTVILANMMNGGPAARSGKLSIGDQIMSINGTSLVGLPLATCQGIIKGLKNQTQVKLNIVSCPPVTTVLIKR

DLG4_1, P78352 = target: DLG4_1, P78352
Chain of DLG4_1, P78352 (P78352 62-152): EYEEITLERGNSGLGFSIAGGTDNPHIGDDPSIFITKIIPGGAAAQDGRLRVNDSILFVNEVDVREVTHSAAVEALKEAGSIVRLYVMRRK

MPDZ_12, O75970 = target: T11, MPDZ_12, O75970
T11 sequence (O75970 1857-1958, limits assumed, looked up): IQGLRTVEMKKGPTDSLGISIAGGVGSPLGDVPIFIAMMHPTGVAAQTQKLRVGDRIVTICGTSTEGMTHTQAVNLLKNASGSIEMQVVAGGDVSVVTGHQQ

DLG3_1, Q92796 = target: T12, DLG3_1, Q92796
T12 sequence (Q92796 125-227, limits assumed, looked up): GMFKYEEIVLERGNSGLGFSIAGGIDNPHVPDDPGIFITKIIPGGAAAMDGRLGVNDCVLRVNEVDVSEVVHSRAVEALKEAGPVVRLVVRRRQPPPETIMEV

NHERF3_1, Q5T2W1 = target: T13, NHERF3_1, Q5T2W1
T13 sequence (Q5T2W1 4-100, limits assumed, looked up): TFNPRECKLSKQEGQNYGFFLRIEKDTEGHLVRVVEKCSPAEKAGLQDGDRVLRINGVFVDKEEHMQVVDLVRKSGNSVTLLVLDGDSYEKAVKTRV

Inadl_3, Q8NI35 = target: Inadl_3, Q8NI35
Chain of Inadl_3, Q8NI35 (Q8NI35 359-469): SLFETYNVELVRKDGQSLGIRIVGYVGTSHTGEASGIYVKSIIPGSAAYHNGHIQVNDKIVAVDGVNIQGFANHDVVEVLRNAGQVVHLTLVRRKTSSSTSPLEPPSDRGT

[1] = plain residues with an end cap or a label only (N-terminal biotin on a linker: gsgsgs; C-terminal amide)
[2] = plain residues with an end cap or a label only (N-terminal biotin on a linker: ttds)
[3] = plain residues with an end cap or a label only (N-terminal biotin on a linker: ado-ado)

Chain of IL16_4, Q14005 (Q14005 1229-1329): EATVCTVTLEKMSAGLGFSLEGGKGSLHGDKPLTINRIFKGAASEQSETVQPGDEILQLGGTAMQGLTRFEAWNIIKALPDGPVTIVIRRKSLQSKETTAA

In the case of ELIQDTSTSFSTTREW [ARAP3_int, Q8WWN8], the pKd (IL16_4, Q14005; [1]) is reported as “below the threshold”, the pKd (APBA3_1, O96018; [1]) is reported as “below the threshold” and the pKd (CARD11, Q9BXL7; [1]) is reported as “below the threshold”. The pKd (FRMPD1, Q5SYB0; [1]) was “below the threshold”, the pKd (GRIP1_5, Q9Y3R0; [1]) was “below the threshold” and the pKd (MPDZ_5, O75970; [1]) was “below the threshold”. For the same binder, the pKd (NOS1, P29475; [1]) was “below the threshold”, the pKd (LDB3, O75112; [1]) was “below the threshold” and the pKd (LIN7A, O14910; [1]) was “below the threshold”. For the same binder, the pKd (PDLIM1, O00151; [1]) was “below the threshold”, the pKd (GRID2IP_1, A4D2P6; [1]) was “below the threshold” and the pKd (PDZRN3_1, Q9UPQ7; [1]) was “below the threshold”. For the same binder, the pKd (MAGI2_6, Q86UL8; [1]) was “below the threshold”, the pKd (PARD3B_1, Q8TEW8; [1]) was “below the threshold” and the pKd (GRIP1_7, Q9Y3R0; [1]) was “below the threshold”. The pKd (FRMPD4, Q14CM0; [1]) was “below the threshold”, the pKd (MAGI2_3, Q86UL8; [1]) was 3.5 and the pKd (PARD3_3, Q8TEW0; [1]) was “below the threshold”. For the same binder, the pKd (APBA2_1, Q99767; [1]) was “below the threshold”, the pKd (DLG4_1, P78352; [1]) was “below the threshold” and the pKd (MPDZ_12, O75970; [1]) was “below the threshold”. For the same binder, the pKd (DLG3_1, Q92796; [1]) was “below the threshold”, the pKd (NHERF3_1, Q5T2W1; [1]) was “below the threshold” and the pKd (Inadl_3, Q8NI35; [1]) was “below the threshold”.

With GGPKEEESPV [SLC16A1, P53985] the pKd (IL16_4, Q14005; [2]) was “below the threshold”, the pKd (APBA3_1, O96018; [2]) was “below the threshold” and the pKd (CARD11, Q9BXL7; [2]) was “below the threshold”. The pKd (FRMPD1, Q5SYB0; [2]) was “below the threshold”, the pKd (GRIP1_5, Q9Y3R0; [2]) was “below the threshold” and the pKd (MPDZ_5, O75970; [2]) was “below the threshold”. The pKd (NOS1, P29475; [2]) was 3.64, the pKd (LDB3, O75112; [2]) was “below the threshold” and the pKd (LIN7A, O14910; [2]) was “below the threshold”. The pKd (PDLIM1, O00151; [2]) was “below the threshold”, the pKd (GRID2IP_1, A4D2P6; [2]) was “below the threshold” and the pKd (PDZRN3_1, Q9UPQ7; [2]) was “below the threshold”. The pKd (MAGI2_6, Q86UL8; [2]) was “below the threshold”, the pKd (PARD3B_1, Q8TEW8; [2]) was “below the threshold” and the pKd (GRIP1_7, Q9Y3R0; [2]) was “below the threshold”. For the same binder, the pKd (FRMPD4, Q14CM0; [2]) was “below the threshold”, the pKd (MAGI2_3, Q86UL8; [2]) was “below the threshold” and the pKd (PARD3_3, Q8TEW0; [2]) was “below the threshold”. The pKd (APBA2_1, Q99767; [2]) was “below the threshold”, the pKd (DLG4_1, P78352; [2]) was “below the threshold” and the pKd (MPDZ_12, O75970; [2]) was “below the threshold”. For the same binder, the pKd (DLG3_1, Q92796; [2]) was “below the threshold”, the pKd (NHERF3_1, Q5T2W1; [2]) was 3.63 and the pKd (Inadl_3, Q8NI35; [2]) was “below the threshold”.

For EEPEERHTEL [CES2, O00748], the pKd (IL16_4, Q14005; [3]) was “below the threshold”, the pKd (APBA3_1, O96018; [3]) was “below the threshold” and the pKd (CARD11, Q9BXL7; [3]) was “below the threshold”. The pKd (FRMPD1, Q5SYB0; [3]) was “below the threshold”, the pKd (GRIP1_5, Q9Y3R0; [3]) was “below the threshold” and the pKd (MPDZ_5, O75970; [3]) was “below the threshold”. For the same binder, the pKd (NOS1, P29475; [3]) was 3.56, the pKd (LDB3, O75112; [3]) was “below the threshold” and the pKd (LIN7A, O14910; [3]) was “below the threshold”. The pKd (PDLIM1, O00151; [3]) was 3.59, the pKd (GRID2IP_1, A4D2P6; [3]) was “below the threshold” and the pKd (PDZRN3_1, Q9UPQ7; [3]) was 4.15. For the same binder, the pKd (MAGI2_6, Q86UL8; [3]) was 4.27, the pKd (PARD3B_1, Q8TEW8; [3]) was 3.71 and the pKd (GRIP1_7, Q9Y3R0; [3]) was “below the threshold”. For the same binder, the pKd (FRMPD4, Q14CM0; [3]) was 4.04, the pKd (MAGI2_3, Q86UL8; [3]) was “below the threshold” and the pKd (PARD3_3, Q8TEW0; [3]) was 3.61. For the same binder, the pKd (APBA2_1, Q99767; [3]) was “below the threshold”, the pKd (DLG4_1, P78352; [3]) was “below the threshold” and the pKd (MPDZ_12, O75970; [3]) was “below the threshold”. For the same binder, the pKd (DLG3_1, Q92796; [3]) was “below the threshold”, the pKd (NHERF3_1, Q5T2W1; [3]) was 4.72 and the pKd (Inadl_3, Q8NI35; [3]) was “below the threshold”.
